Reference: publication PMC9541495, “Understanding the interaction of 14‐3‐3 proteins with hDMX and hDM2: a structural and biophysical study” (The Febs Journal, 2022)
[ ]: non-standard residue; d: D form. pS = N[C@@H](COP(=O)(O)O)C(=O)O; FAM = 5,6-carboxyfluorescein; Ahx = NCCCCCC(=O)O

B1: FAM‐Ahx‐hDM2_(180‐192) ^pSer186 (peptide)
peptide: {FAM-Ahx}-QRKRHK[pS]DSISLS-NH2
notes: hDM2 (human double minute 2 protein), human, residues 180-192; Tracer form used in the FA assays; source: synthetic peptide (Fmoc SPPS, HPLC purified)
B2: FAM‐Ahx‐hDMX_(335‐349) ^pSer342 (peptide)
peptide: {FAM-Ahx}-SKLTHSL[pS]TSDITAI-NH2
notes: hDMX (human double minute 4 protein, hDM4), human, residues 335-349; Tracer form used in the FA assays; source: synthetic peptide (Fmoc SPPS, HPLC purified)
B3: FAM‐Ahx‐hDM2_(160‐171) ^pSer166 (peptide)
peptide: {FAM-Ahx}-SRRRAI[pS]ETEEN-NH2
notes: hDM2 (human double minute 2 protein), human, residues 160-171; Tracer form used in the FA assays; also called hDM2_(160‐171) ^Ser166; source: synthetic peptide (Fmoc SPPS, HPLC purified)
B4: FAM‐Ahx‐hDMX_(361‐374) ^pSer367 (peptide)
peptide: {FAM-Ahx}-DCRRTI[pS]APVVRPK-NH2
notes: Tracer form used in the FA assays; source: synthetic peptide (Fmoc SPPS, HPLC purified)

The binders below were run against T1, 14‐3‐3η (human, UniProt Q04917 1-246) (assay: fluorescence polarisation; fluorescence anisotropy, direct titration: 14-3-3 protein titrated (1/2 dilution series) against 50 nM FAM-Ahx tracer peptide; 10 mM HEPES, 150 mM NaCl, 0.1% Tween 20, 0.1% BSA, pH 7.4; 384 well plates, triplicates; protein concentration as 14-3-3 monomer; 1:1 fit, biphasic curves fitted as two separate 1:1 events (Kd1, Kd2)). Details: both partners purified.
T1 construct: 14-3-3 eta, human, full-length protein from the pProEx HTb-His-14-3-3 construct; Captured on an NTA chip in SPR; source: E. coli BL21(DE3), purified (Ni2+-NTA, dialysis)
T1 sequence (looked up): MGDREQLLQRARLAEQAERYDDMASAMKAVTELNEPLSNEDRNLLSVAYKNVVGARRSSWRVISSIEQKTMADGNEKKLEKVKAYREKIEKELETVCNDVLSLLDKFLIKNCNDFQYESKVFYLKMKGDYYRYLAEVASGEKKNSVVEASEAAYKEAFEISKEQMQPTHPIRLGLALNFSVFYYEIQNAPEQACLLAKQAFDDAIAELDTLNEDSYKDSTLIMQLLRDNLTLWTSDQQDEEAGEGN
In the case of B1, the Kd is reported as 31.6 ± 1.9 µM.
For B2, the Kd was 20 ± 1.2 µM.
B3 gave a Kd of 10.2 ± 0.3 µM.
In the case of B4, the Kd is reported as 0.099 ± 0.005 µM.

The binders below were run against T2, 14‐3‐3ζ (human, UniProt P63104 1-245) in the same assay as above. Details: both partners purified.
T2 construct: 14-3-3 zeta, human, full-length protein from the pProEx HTb-His-14-3-3 construct; Written as the protomer; tag removal is told only for the ∆C proteins; source: E. coli BL21(DE3), purified (Ni2+-NTA, dialysis)
T2 sequence (looked up): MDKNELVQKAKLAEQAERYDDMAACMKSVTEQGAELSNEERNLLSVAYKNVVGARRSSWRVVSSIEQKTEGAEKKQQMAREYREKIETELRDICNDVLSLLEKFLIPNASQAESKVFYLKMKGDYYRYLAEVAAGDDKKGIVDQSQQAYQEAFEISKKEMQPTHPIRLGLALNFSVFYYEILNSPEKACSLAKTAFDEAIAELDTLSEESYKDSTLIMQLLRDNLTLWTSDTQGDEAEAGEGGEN
Work on B1 yielded a Kd of 166 ± 5.6 µM.
B2 showed a Kd of 95.8 ± 3.6 µM.
B3 gave a Kd of 19.6 ± 0.2 µM.
B4 showed a Kd of 0.92 ± 0.03 µM.

Each binder was assayed against T3, 14‐3‐3γ (human, UniProt P61981 1-247) in the same assay as above. Details: both partners purified.
T3 construct: 14-3-3 gamma, human, full-length protein from the pProEx HTb-His-14-3-3 construct; Written as the protomer; tag removal is told only for the ∆C proteins; source: E. coli BL21(DE3), purified (Ni2+-NTA, dialysis)
T3 sequence (looked up): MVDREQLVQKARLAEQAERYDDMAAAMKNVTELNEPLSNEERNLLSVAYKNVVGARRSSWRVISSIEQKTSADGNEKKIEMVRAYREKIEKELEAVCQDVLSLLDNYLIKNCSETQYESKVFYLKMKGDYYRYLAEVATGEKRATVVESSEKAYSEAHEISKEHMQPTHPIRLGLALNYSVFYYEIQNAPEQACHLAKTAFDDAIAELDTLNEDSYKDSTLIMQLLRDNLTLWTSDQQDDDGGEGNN
B1 showed a Kd of 82.9 ± 2.1 µM.
B2 showed a Kd of 37.8 ± 0.7 µM.
B3 showed a Kd of 3.9 ± 0.3 µM.
In the case of B4, the Kd is reported as 0.53 ± 0.04 µM.

What follows are binders tested against T4, 14‐3‐3σ (human, UniProt P31947 1-248) in the same assay as above. Details: both partners purified.
T4 construct: 14-3-3 sigma, human, full-length protein from the pProEx HTb-His-14-3-3 construct (used in the FA assays); Written as the protomer; tag removal is told only for the ∆C proteins; source: E. coli BL21(DE3), purified (Ni2+-NTA, dialysis)
T4 sequence (looked up): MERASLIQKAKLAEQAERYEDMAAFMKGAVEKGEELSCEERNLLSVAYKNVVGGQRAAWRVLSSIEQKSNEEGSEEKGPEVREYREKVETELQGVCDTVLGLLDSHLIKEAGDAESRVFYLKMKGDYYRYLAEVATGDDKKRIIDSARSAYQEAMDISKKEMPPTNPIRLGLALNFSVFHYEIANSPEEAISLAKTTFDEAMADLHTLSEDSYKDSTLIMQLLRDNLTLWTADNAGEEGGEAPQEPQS
B1 was tested, and the Kd was over 170 µM.
For B2, the Kd was 136 ± 3.6 µM.
B3 showed a Kd of 32.7 ± 1.4 µM.
B4 showed a Kd of 3.6 ± 0.4 µM.

Each binder was assayed against T5, 14‐3‐3ε (human, UniProt P62258 1-255) in the same assay as above. Details: both partners purified.
T5 construct: 14-3-3 epsilon, human, full-length protein from the pProEx HTb-His-14-3-3 construct; Written as the protomer; tag removal is told only for the ∆C proteins; source: E. coli BL21(DE3), purified (Ni2+-NTA, dialysis)
T5 sequence (looked up): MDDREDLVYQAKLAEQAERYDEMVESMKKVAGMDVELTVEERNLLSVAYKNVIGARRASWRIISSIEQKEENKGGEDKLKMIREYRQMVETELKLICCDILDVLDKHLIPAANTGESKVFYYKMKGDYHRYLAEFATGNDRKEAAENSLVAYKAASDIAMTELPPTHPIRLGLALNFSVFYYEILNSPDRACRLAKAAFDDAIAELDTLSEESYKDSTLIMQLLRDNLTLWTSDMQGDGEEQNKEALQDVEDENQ
In the case of B1, the Kd is reported as over 260 µM.
B2 gave a Kd of 53.4 ± 2.9 µM.
B3 was tested, and the Kd was 23 ± 1.2 µM.
B4 was tested, and the Kd was 2.7 ± 0.2 µM.
